“Also recorded” adds a separate entry of the source.
B1: P100NSP-2: PEG100, non-specific attachment to ligand 2; bioconjugated to phage wrapped with K14-Cys (conjugate)
peptide 1: SECVEVFQNSCDW
peptide 2: KKKKKKKKKKKKKKC
chain: AEGDDPAKAAFNSLQASATEYIGYAWAMVVVIVGATIGIKLFKKFTSKAS
B2: P100SP-2: PEG100, specific attachment to ligand 2 (conjugate)
peptide 1: SECVEVFQNSCDW
peptide 2: KKKKKKKKKKKKKKC
chain: B1 chain
B3: P100SP-P4-2: PEG100, specific attachment, PEG4 linker, ligand 2 (conjugate)
peptide 1: SECVEVFQNSCDW
peptide 2: KKKKKKKKKKKKKKC
chain: B1 chain
B4: 2:1 mixture of P100NSP-2 and P100NSP-1: dual PEGylated ligand combination wrapped on phage (conjugate)
peptide 1: SECVEVFQNSCDW
peptide 2: CALCEFLG
peptide 3: KKKKKKKKKKKKKKC
chain: B1 chain
B5: P100NSP-P4-2+P100NSP-P4-1: dual PEGylated ligand combination with PEG4 linker, non-specific attachment, on phage (conjugate)
peptide 1: SECVEVFQNSCDW
peptide 2: CALCEFLG
peptide 3: KKKKKKKKKKKKKKC
chain: B1 chain
B6: P100SP-P4-2+P100SP-P4-1: dual PEGylated ligand combination with PEG4 linker, specific attachment, 2:1 ratio, on phage (conjugate)
peptide 1: SECVEVFQNSCDW
peptide 2: CALCEFLG
peptide 3: KKKKKKKKKKKKKKC
chain: B1 chain

biological target: T1, PSMA on LNCaP cells (Homo sapiens, UniProt Q04609); assay: Cell-based phage ELISA, recognition of cell surface PSMA; conditions: PEGylated ligands on phage wrapped with K14-Cys
T1 construct: specific recognition of PSMA on the surface of LNCaP cells; endogenous in cells; host or cells: LNCaP (also LNCaP CSS); glutaraldehyde-fixed on the plate
T1 sequence (Q04609 whole entry): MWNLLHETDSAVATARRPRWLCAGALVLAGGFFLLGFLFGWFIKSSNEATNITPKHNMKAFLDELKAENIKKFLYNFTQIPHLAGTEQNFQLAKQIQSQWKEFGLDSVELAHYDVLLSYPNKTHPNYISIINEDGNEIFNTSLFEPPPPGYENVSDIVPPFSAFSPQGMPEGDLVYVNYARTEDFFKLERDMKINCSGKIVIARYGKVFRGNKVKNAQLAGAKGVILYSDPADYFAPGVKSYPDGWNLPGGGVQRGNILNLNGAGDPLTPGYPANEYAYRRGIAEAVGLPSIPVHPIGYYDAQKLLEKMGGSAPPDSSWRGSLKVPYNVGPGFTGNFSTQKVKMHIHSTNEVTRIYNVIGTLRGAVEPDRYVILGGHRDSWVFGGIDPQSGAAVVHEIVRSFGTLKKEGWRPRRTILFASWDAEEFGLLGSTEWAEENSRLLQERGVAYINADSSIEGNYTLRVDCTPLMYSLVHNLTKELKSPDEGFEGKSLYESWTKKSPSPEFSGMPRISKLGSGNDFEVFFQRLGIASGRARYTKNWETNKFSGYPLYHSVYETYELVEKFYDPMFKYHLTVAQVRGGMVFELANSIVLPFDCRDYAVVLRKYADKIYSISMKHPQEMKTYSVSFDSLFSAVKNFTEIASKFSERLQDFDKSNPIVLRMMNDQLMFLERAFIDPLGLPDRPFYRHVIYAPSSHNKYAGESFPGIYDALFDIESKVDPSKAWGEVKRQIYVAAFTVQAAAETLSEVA
Experimental: The cell-based ELISA was performed as previously described by Watanabe et. al. with several modifications. See e.g., Watanabe, K.; et al., Clin. Biochem. 2001, 34, 291-295. Cells were detached with Trypsin-EDTA, resuspended in PBS, and then collected by centrifuging at 1200 rpm for 5 min. The cells were further washed with PBS and then concentrated as in the previous step. The concentration of the cells was adjusted to 4.5×10^6 cells/mL in PBS using a hemocytometer, and 100 μL was aliquoted to specific wells of a 96-well microtiter (Nunc Maxisorp). Next, 50 μL of 0.15% of glutaraldehyde in PBS was added to the wells at 4° C., and the solution was gently mixed by pipetting. The ELISA plate was then centrifuged at 1200 rpm for 10 min at 4° C., followed by overnight incubation at 4° C. The cell solution was gently removed, and the wells were blocked with 200 μL/well of blocking buffer containing 100 mM glycine, 1% gelatin and 0.1% w/v BSA (bovine serum albumin) in PBS. The plate was incubated overnight (˜20-22 h) at room temperature.
Separately, phage wrapped with PEG and PEGylated ligands were prepared. Phage (10 nM in 100 μL) and 1 μL of K14-alkyne (525 μM in water) were thoroughly mixed by pipetting ˜25 times. For phage wrapped with PEGylated ligands, phage were mixed with 0.75 μL of K14-Cys (525 μM in water). For mixed wrapping on phage surface, 0.5 μL of K14-alkyne was pre-mixed with 0.75 μL of K14-Cys, and then mixed with 100 μL of 10 nM phage. The solution was shaken at room temperature for 15 min on an orbital shaker. Next, 2 μL of PEGylated ligand (625 μM in water) was added to the appropriate wells. For the dual ligand combinations, the PEGylated ligands were pre-mixed in the desired ratio (2:1 for example), and then 2 μL of the mixture was added to the appropriate wells. The solutions were gently mixed by pipetting, and incubated overnight at 4° C.
Next, the click reaction was performed, as previously described, but with the following modifications.^1,2 Triethylammonium acetate was added to a final concentration of 50 mM, followed by the addition of 1.5 μL of 1 mM azide-functionalized PEG. The solutions were mixed by pipetting. Next, ascorbic acid was added to a final concentration of 1 mM and the solutions were mixed by gently pipetting. Next, copper sulfate was added to a final concentration of 1.5 mM, followed by pipetting to mix the solutions. Water was added to the other wells to maintain a consistent phage concentration. The plate was incubated at room temperature for 30 min.
The wells on the ELISA plate were then incubated with the phage samples. The blocking buffer was removed and the wells were gently washed two times with PBS. Next, the phage solution was added to the respective wells and incubated for 45 min. The phage solution was removed, and the wells were washed three times with 300 μL/well of wash buffer PT (0.05% TWEEN-20 in PBS), once with PBS, and then incubated with horseradish-peroxidase-conjugated anti-M13 antibody (100 μL/well, 1:5000 dilution in PBS) for 40 min. The wells were washed three times with PT and once with PBS. The plate was then developed by incubating with HRP substrate solution (100 μL/well; 1 mg/mL o-phenylenediamine dihydrochloride and 0.02% w/v H2O2) in citric acid buffer (50 mM citric acid, 50 mM Na2HPO4, pH 5.0). The HRP activity was measured spectrophotometrically at 450 nm using a microtiter plate reader (Bio-Tek). The absorbance at 630 nm was subtracted from the absorbance at 450 nm to eliminate background.

Molecule	relative binding affinity for cell surface PSMA on LNCaP cells
B1	higher affinity for LNCaP cells compared to P100NSP-1
B2	higher binding affinity for cell surface PSMA than P100NSP-2
B3	most effective PEGylated ligand for recognition of PSMA on the cell surface
B4	maximize the recognition of PSMA on LNCaP cells
B5	drop in affinity; also recorded: affinity equivalent to P100NSP-P4-2
B6	significant increase in binding affinity

same assay, conditions: PEGylated ligands on phage wrapped with K14-Cys; listed as P100NSP-2+P100NSP-1

Molecule	relative binding affinity for cell surface PSMA on LNCaP cells
B4	modest improvement

Source: patent publication US11168306B2, “Phage wrapping” (priority 2014, dated 2021)
